Test results published in patent US20150166643A1 (Alexion, published 2015).
Changes are numbered by the printed parent chain. Names may count otherwise.

B1: CLS011 (TA106-derivative full-length IgG2/4 mAb, wild type light chain, expressed in CHO cells) (antibody, V domains shown)
VH: EVQLVQSGAEVKKPGASVKVSCKASGYSFTDYYMTWVRQAPGQGLEWMGWINPNSGGTKYAQKFQGRVTMTRDTSISTAYMELSRLRSDDTAVYYCARGYYANSAWFAYWGQGTLVTVSS
VL: DIVMTQSPDSLAVSLGERATINCKSSQSLLNSSTSKNYLAWYQQKPGQPPKLLIYWASTRESGVPDRFSGSGSGTDFTLTISSLQAEDVAVYYCKQVYNLPWTFGQGTKLEIKR
modifications: N-linked glycans on the N31-S32-S33 motif of CDR1; N-linked glycans on the heavy chain (possibly at N296)
notes: Human IgG2/4 full-length mAb; also called CLS011 mAb; TA106-derivative mAb
B2: CLS013 (TA106-derivative S33A variant, full-length IgG2/4 mAb, expressed in CHO cells) (antibody, V domains shown)
VH: B1 VH
VL: B1 VL with S33A
modifications: N-linked glycans on the heavy chain
notes: Human IgG2/4 full-length mAb; also called CLS013 mAb; TA106 variant S33A

Columns and labels:
[1] = biological target: T1, human factor B (purified, Complement Technology A135) (human, UniProt P00751 26-764); assay: cell-based or functional assay
[2] = biological target: T1, human factor B (purified, Complement …); assay: SPR, captured mAb, soluble factor B (summary table)
Source text: (§1) Binding kinetics of mAbs were further characterized using Biacore's Surface Plasmon Resonance (SPR) technology (GE Healthcare, Piscataway, N.J.). For a detailed description of SPR and its applications in affinity measurement, please see Karlsson and Larsson, Antibody Engineering: Methods and Protocols, Methods in Molecular Biology (2003), 248: 389-415. In one exemplary experiment, TA106 Fab and derivative mAbs were captured on chips of a Biacore 3000 analyzer and samples of human factor B of different concentrations were flowed as the antigen over the surface to model soluble human factor B binding, using protocols recommended by the manufacturer (e.g., in the product brochure #BR-9003-31). All these referenced publications are hereby incorporated by reference in their entirety. […] Fab TA106 (Xoma, Lot#TTA1007, 20 mg/mL) was then flowed over one flow cell, followed by injections of human factor B on both flow cells. Concentrations (factor B) between 3.1-200 nM were run. The surface was regenerated between each cycle. […] The affinities of mAbs, i.e., CLS011, CLS012, and CLS013, were determined using a similar capture approach. In one exemplary experiment, human anti-Fc antibody was amine coupled to two flow cells of a CM5 chip. Each of the TA106-originated mAbs was then flowed over one flow cell, followed by injecting human factor B (3.1-200 nM) on both flow cells. […]

[3] = biological target: T1, human factor B (purified, Complement …); assay: BLI (Octet), mAb on anti-human Fc biosensor, 25 nM human factor B
Method: (§2) Binding kinetics of TA106-originated mAbs were analyzed using a FortéBio® Octet® biosensor (FortéBio, Inc.) in a similar protocol as described previously. In one exemplary experiment, wild type (CLS011) and the variant S33A (CLS013) mAbs were captured on anti-human Fc biosensors at a concentration of 5 μg/mL, diluted in 1× kinetics buffer (KB, a proprietary formulation containing PBS/Tween). Capture (loading) was carried out for 400 seconds, followed by briefly dipping the biosensors in 1×KB as a wash for 30 seconds. Associations with a titration series of purified human Factor B (Complement Technology, Tyler, Tex.), which concentrations range from 50 to 3 nM (diluted in 1×KB), were carried out for 300 seconds.

[4] = biological target: T1, human factor B (purified, Complement …); assay: BLI (Octet), mAb on anti-human Fc biosensor, 50 nM human factor B
Method: as §2

[5] = biological target: T1, human factor B (purified, Complement …); assay: BLI (Octet), mAb on anti-human Fc biosensor, 12.5 nM human factor B
Method: as §2

[6] = biological target: T1, human factor B (purified, Complement …); assay: SPR (Biacore 3000), mAb captured by anti-Fc antibody on CM5 chip, soluble human factor B 3.1-200 nM
Source text: as §1

[7] = biological target: T1, human factor B (purified, Complement …); assay: SPR (Biacore), CLS011 captured on anti-Fc surface, soluble factor B 3.1-100 nM flowed; Chi2 0.283
Source text: as §1

[8] = biological target: T1, human factor B (purified, Complement …); assay: SPR (Biacore), CLS013 captured on anti-Fc surface, soluble factor B 3.1-100 nM flowed; Chi2 1.05
Source text: as §1

[9] = biological target: T1, human factor B (purified, Complement …); assay: ELISA, human factor B coated at 0.5 ug/mL, detection with sheep anti-human kappa light chain HRP, abs 450 nm against nM antibody
Method: The binding activities of these mAbs towards factor B were analyzed by ELISA using standard protocols. In one exemplary experiment, MaxiSorp™ ELISA plates (Nunc, #439454, Rochester, N.Y.) were coated with 50 μL of human factor B (Complement Technology, A135, 1 mg/mL, lot 14c) at a concentration of 0.5 μg/mL in carbonate coating buffer (0.795 g carbonate+1.46 g bicarbonate+1 mL 1% NaN₃ (final concentration of 0.002%) in 500 mL water, pH 9.6 (lot 02 August 10)). Plates then were covered with plate sealers and incubated at 37±1° C. for one hour. Following coating, wells were emptied of reagent and washed in a BioTek® ELx405 plate washer (BioTek, Winooski, Vt.) for three times with 200 μL wash solution (PBS/0.05% Tween 20) per well. Following washes, wells were blocked with 100 μL of BSA (1% w/v) and incubated for one hour at room temperature. Wells were then washed again as described above. Fifty microliter samples (i.e., TA106 Fab, CLS011 mAb, CLS012 mAb, and CLS013 mAb) were then added to wells and incubated for one hour at room temperature. […] The plate was read on a Benchmark™ microplate reader (Bio-Rad Laboratories, Hercules, Calif.) at 450 nm. Standard curves were plotted with 4 parameter fit with DeltaSoft® 1.6 software, and sample concentrations were determined from the standard curves.

T1 sequence (P00751 26-764): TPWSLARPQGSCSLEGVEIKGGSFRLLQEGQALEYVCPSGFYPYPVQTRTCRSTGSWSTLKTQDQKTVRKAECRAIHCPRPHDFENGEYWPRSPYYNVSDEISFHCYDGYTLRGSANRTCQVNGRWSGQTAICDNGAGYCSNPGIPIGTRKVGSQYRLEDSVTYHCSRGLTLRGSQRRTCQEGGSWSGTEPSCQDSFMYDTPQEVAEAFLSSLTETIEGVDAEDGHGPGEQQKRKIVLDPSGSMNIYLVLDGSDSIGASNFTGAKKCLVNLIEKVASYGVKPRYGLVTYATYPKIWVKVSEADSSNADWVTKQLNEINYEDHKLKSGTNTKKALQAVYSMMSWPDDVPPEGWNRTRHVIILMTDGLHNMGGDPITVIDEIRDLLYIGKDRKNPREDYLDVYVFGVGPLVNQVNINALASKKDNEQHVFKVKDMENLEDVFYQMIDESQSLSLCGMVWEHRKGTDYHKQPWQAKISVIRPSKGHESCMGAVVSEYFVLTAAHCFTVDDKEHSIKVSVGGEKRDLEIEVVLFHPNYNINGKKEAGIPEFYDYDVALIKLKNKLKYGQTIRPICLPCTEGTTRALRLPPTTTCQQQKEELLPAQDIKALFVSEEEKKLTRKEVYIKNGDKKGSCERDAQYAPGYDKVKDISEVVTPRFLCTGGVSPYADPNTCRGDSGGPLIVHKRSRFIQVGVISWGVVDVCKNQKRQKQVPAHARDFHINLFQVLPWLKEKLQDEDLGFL

| Binder | IC50 (read off the curve); lysis of rabbit red blood cells in 10% normal human serum [1] | Kd [2] | Kd [3] | koff [3] | kon [3] | Kd [4] | koff [4] | kon [4] | Kd [5] | koff [5] | kon [5] | Kd [6] | koff [7] | kon [7] | koff [8] | kon [8] | EC50 (read off the curve) [9] |
| --- | --- | --- | --- | --- | --- | --- | --- | --- | --- | --- | --- | --- | --- | --- | --- | --- | --- |
| B1 | ~50 nM | 15 nM | 17.3 nM | 0.00297 s⁻¹ | 171000 M⁻¹ s⁻¹ | 24.9 nM | 0.00418 s⁻¹ | 168000 M⁻¹ s⁻¹ | 11.1 nM | 0.00289 s⁻¹ | 261000 M⁻¹ s⁻¹ | ~15.4 nM | 0.00253 s⁻¹ | 165000 M⁻¹ s⁻¹ |  |  |  |
| B2 | ~20 nM | 18 nM | 52.2 nM | 0.00472 s⁻¹ | 90300 M⁻¹ s⁻¹ | 32.1 nM | 0.00504 s⁻¹ | 157000 M⁻¹ s⁻¹ | 37.7 nM | 0.00428 s⁻¹ | 114000 M⁻¹ s⁻¹ | ~17.6 nM |  |  | 0.00311 s⁻¹ | 177000 M⁻¹ s⁻¹ | ~0.4 nM |
